The values that follow come from US20170247448A1 (INTRINSIC LIFESCIENCES, published 2017).

The target of assay [1] is T1, Human hepcidin peptide (hepcidin-25) (human).
T1 construct: Synthetic 25 aa peptide; also called hep-25; Hep-25
T1 peptide: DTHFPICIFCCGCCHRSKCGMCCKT
Put plainly: titration affinity ELISA, hepcidin 100 ng/well on Nunc Immobilizer Amino plate; antibody 0 ng/ml (blank). The procedure: (§1) FIGS. 17A-C. Titration affinity ELISA of humanized hits. FIG. 17A: Assay layout. CHO cells were seeded in 6 well plates, transfected with BAP070-01 (recombinant chimera), BAP070-01 humanized hits or vector only using BioAtla's transfection protocol and cultured at 37° C. in DMEM with 10% serum. Supernatants were collected at 48 hours post-transfection. Concentration of IgG in the supernatant was determined using BioAtla's quantitation ELISA. […] Vector only supernatant (column 7) was used as negative control. Bound antibodies were detected with anti-human IgG conjugated with HRP (1:2500). The reactions were stopped with 1 N HCl at 1.5 minutes after TMB was added to the wells and read immediately. OD 450 nm value of the reactions was measure with Molecular Device SPECTRAMAX® Plus. FIG. 17B: OD 450 nm value of the reactions measured with Molecular Device SPECTRAMAX® Plus. FIG. 17C: SOFTMAX® graph of […] data (Brown triangle: BAP070-01 recombinant chimeric antibody). X axis: Antibody concentration in ng/ml. Y axis: OD 450 nm values
In general terms: ELISA stands for enzyme-linked immunosorbent assay.

Assay [2] deals with T1, Human hepcidin peptide (hepcidin-25). Put plainly: titration affinity ELISA, hepcidin 100 ng/well on Nunc Immobilizer Amino plate, CHO supernatant; antibody 25 ng/ml. The procedure:
as §1

Assay [3] shares this target. Put plainly: titration affinity ELISA, hepcidin 100 ng/well on Nunc Immobilizer Amino plate, CHO supernatant; antibody 50 ng/ml. The procedure:
as §1

Assay [4] has the same target. Put plainly: titration affinity ELISA, hepcidin 100 ng/well on Nunc Immobilizer Amino plate, CHO supernatant; antibody 100 ng/ml. The protocol: as §1
The target is the same in assay [5]. Put plainly: titration affinity ELISA, hepcidin 100 ng/well on Nunc Immobilizer Amino plate, CHO supernatant; antibody 1.56 ng/ml. The procedure:
as §1

The target is the same in assay [6]. Put plainly: titration affinity ELISA, hepcidin 100 ng/well on Nunc Immobilizer Amino plate, CHO supernatant; antibody 12.5 ng/ml. The procedure: as §1
For assay [7] the target is unchanged. Put plainly: titration affinity ELISA, hepcidin 100 ng/well on Nunc Immobilizer Amino plate, CHO supernatant; antibody 3.13 ng/ml. The procedure: as §1
Assay [8] has the same target. Put plainly: titration affinity ELISA, hepcidin 100 ng/well on Nunc Immobilizer Amino plate, CHO supernatant; antibody 6.25 ng/ml. The protocol: as §1

B1: BAP070-hum06 (antibody, IgG1, V domains shown)
VH: EVQLVQSGAEVKKPGESLRISCKGSGYTFTNYGMNWIRQPPGKGLEWIGWINTYTGEPTYADDFKGRVTISADKSISTAYLQWSSLKASDTAMYYCTTYATSWYWGQG
VL: AIQLTQSPSSLSASVGDRVTITCRASESVDSYGNSFMHWYQQKPGQAPRLLIYRASNLESGVPSRFSGSGSGTDFTFTISSLQPEDIATYYCQQSNEDLTFG
notes: Expressed as soluble IgG1 in CHO cells, tested as supernatant; The entries stop inside FR4
For B1, the “OD 450 nm” value in assay [1] came to 0.042 OD450; in assay [2] it was 2.69 OD450; in assay [3], 3.06 OD450; in assay [4], 3.25 OD450; in assay [5], 0.75 OD450; in assay [6], 2.12 OD450. Further, the results for the “OD 450 nm” value in assay [7] and in assay [8] were 1.15 OD450 and 1.68 OD450, respectively.

B2: BAP070-01 (human-mouse chimeric MAb 583) (antibody, human IgG1, kappa, V domains shown)
VH: QIQLVQSGPELKKPGETVKISCKASGYTFTNYGMNWVKQAPGKGLKWMGWINTYTGEPTYADDFKGRFAFSLETSASTAYLQINNLKNEDTATYFCTTYATSWYWGQGTLVTVSS
VL: DIVLTQSPASLAVSLGQRATISCRASESVDSYGNSFMHWYQQKPGQPPKLLIYRASNLESGIPARFSGSGSRTDFTLTINPVEADDVATYYCQQSNEDLTFGQGTKVEIKR
notes: used as CHO cell supernatant; also called BAP070-1
Turning to B2, the “OD 450 nm” value in assay [1] worked out at 0.05 OD450; in assay [2] it was 2.57 OD450; in assay [3], 3 OD450; in assay [4], 3.33 OD450; in assay [5], 0.492 OD450; in assay [6], 1.8 OD450. The figures for the “OD 450 nm” value in assay [7] and in assay [8] were 0.793 OD450 and 1.32 OD450, respectively.
